How the values were obtained:
[1] = target: T1, human serum albumin (human, UniProt P02768 25-609); experiment: SPR Biacore 8K+, HSA immobilized (C1 chip), pH 6.0, bivalent analyte fit (ka1)
T1 construct: Bought protein; also called HSA
Protocol: (§1) The constructs containing a 9GS and 35GS linker between the albumin-binding building blocks were selected for further characterization. The affinities of the purified ISVD expression constructs for human and mouse serum albumin (HSA and MSA, respectively) at pH 6.0 and pH 7.4 were determined on a Biacore 8K+ instrument. HSA or MSA (HSA: Sigma-Aldrich-Sigma, Cat No. A8763; MSA: Albumin Bioscience, Cat No. 2601) was immobilized on a Series S Sensor Chip C1. The fusion proteins as described in Table 7 above were injected at 9 different concentrations (between 0.6 and 2000 nM) and allowed to associate for 120 s at 30 μL/min and dissociate for 600 s. Evaluation of the sensorgrams was based on the bivalent analyte fit.

[2] = target: T2, mouse serum albumin (mouse, UniProt P07724 25-608); experiment: SPR Biacore 8K+, MSA immobilized (C1 chip), pH 7.4, bivalent analyte fit (KD1)
T2 construct: Bought protein; also called MSA
Protocol: as §1

[3] = target: T1, human serum albumin; experiment: SPR Biacore 8K+, HSA immobilized (C1 chip), pH 7.4, bivalent analyte fit (ka1)
Protocol: as §1

[4] = target: T2, mouse serum albumin; experiment: SPR Biacore 8K+, MSA immobilized (C1 chip), pH 6.0, bivalent analyte fit (kd1)
Protocol: as §1

[5] = target: T2, mouse serum albumin; experiment: SPR Biacore 8K+, MSA immobilized (C1 chip), pH 6.0, bivalent analyte fit (KD1)
Protocol: as §1

[6] = target: T2, mouse serum albumin; experiment: SPR Biacore 8K+, MSA immobilized (C1 chip), pH 7.4, bivalent analyte fit (ka1)
Protocol: as §1

[7] = target: T1, human serum albumin; experiment: SPR Biacore 8K+, HSA immobilized (C1 chip), pH 6.0, bivalent analyte fit (KD1)
Protocol: as §1

[8] = target: T1, human serum albumin; experiment: SPR Biacore 8K+, HSA immobilized (C1 chip), pH 7.4, bivalent analyte fit (KD1)
Protocol: as §1

[9] = target: T2, mouse serum albumin; experiment: SPR Biacore 8K+, MSA immobilized (C1 chip), pH 6.0, bivalent analyte fit (ka1)
Protocol: as §1

[10] = target: T2, mouse serum albumin; experiment: SPR Biacore 8K+, MSA immobilized (C1 chip), pH 7.4, bivalent analyte fit (kd1)
Protocol: as §1

[11] = target: T1, human serum albumin; experiment: SPR Biacore 8K+, HSA immobilized (C1 chip), pH 6.0, bivalent analyte fit (kd1)
Protocol: as §1

[12] = target: T1, human serum albumin; experiment: SPR Biacore 8K+, HSA immobilized (C1 chip), pH 7.4, bivalent analyte fit (kd1)
Protocol: as §1

[13] = target: T2, mouse serum albumin; experiment: SPR ProteOn XPR36, MSA immobilized (GLC sensor), pH 6.0, Langmuir 1:1 fit
Protocol: (§2) In a first experiment, the affinities of monovalent (ALB00223) and a bivalent ALB23002 construct (T032200003) for human and mouse serum albumin (HSA and MSA, respectively) at pH 6.0 and pH 7.4 were determined on a ProteOn XPR36 instrument (Bio-rad Laboratories, Inc.). HSA or MSA (HSA: Sigma-Aldrich—Sigma, Cat No. A8763; MSA: Albumin Bioscience, Cat No. 2601) was immobilized via amine coupling on a GLC sensor (short matrix, normal capacity). The constructs were injected at 6 different concentrations (between 0.95 and 500 nM) and allowed to associate for 120 s at 45 μL/min and dissociate for 600 s. Evaluation of the sensorgrams was based on the Kinetic Langmuir 1:1 (simultaneous ka/kd) fit.

[14] = target: T1, human serum albumin; experiment: SPR ProteOn XPR36, HSA immobilized (GLC sensor), pH 7.4, Langmuir 1:1 fit
Protocol: as §2

[15] = target: T2, mouse serum albumin; experiment: SPR ProteOn XPR36, MSA immobilized (GLC sensor), pH 7.4, Langmuir 1:1 fit
Protocol: as §2

[16] = target: T1, human serum albumin; experiment: SPR ProteOn XPR36, HSA immobilized (GLC sensor), pH 6.0, Langmuir 1:1 fit
Protocol: as §2

T2 sequence (P07724 25-608 limits assumed): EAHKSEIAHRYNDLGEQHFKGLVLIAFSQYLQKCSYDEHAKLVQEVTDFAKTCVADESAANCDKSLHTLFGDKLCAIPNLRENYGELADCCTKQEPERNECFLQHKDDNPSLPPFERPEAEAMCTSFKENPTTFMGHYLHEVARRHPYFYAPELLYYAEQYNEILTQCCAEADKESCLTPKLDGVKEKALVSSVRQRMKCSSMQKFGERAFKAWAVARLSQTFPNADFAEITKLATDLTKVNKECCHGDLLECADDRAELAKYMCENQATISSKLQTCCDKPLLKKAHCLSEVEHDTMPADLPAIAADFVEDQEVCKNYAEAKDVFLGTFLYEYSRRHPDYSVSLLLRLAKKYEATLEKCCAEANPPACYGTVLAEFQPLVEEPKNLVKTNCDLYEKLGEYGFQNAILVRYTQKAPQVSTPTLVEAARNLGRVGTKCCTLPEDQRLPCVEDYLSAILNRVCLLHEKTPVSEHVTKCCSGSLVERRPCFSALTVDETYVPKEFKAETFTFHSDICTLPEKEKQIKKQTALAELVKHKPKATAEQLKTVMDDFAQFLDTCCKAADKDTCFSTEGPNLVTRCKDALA

| Binder | kon [1] [M⁻¹ s⁻¹] | Kd [2] [nM] | kon [3] [M⁻¹ s⁻¹] | koff [4] [s⁻¹] | Kd [5] [nM] | kon [6] [M⁻¹ s⁻¹] | Kd [7] [nM] | Kd [8] [nM] | kon [9] [M⁻¹ s⁻¹] | koff [10] [s⁻¹] | koff [11] [s⁻¹] | koff [12] [s⁻¹] | other results |
| --- | --- | --- | --- | --- | --- | --- | --- | --- | --- | --- | --- | --- | --- |
| T026301360 (VHH, not shown: large carriers; small tags and cut ends, Tetravalent ISVD fusion protein made in P. pastoris; X and Y are undisclosed target ISVDs; also called X-9GS-Y-9GS-ALB23002-9GS-Alb223; X-Y-Alb23002-Alb223) EVQLVESGGGVVQPGGSLRLSCAASGFTFRSFGMSWVRQAPGKGPEWVSSISGSGSDTLYADSVKGRFTISRDNSKNTLYLQMNSLRPEDTALYYCTIGGSLSRSSQGTLVTVSSGGGGSGGGSEVQLVESGGGVVQPGGSLRLSCAASGFTFRSFGMSWVRQAPGKGPEWVSSISGSGSDTLYADSVKGRFTISRDNSKNTLYLQMNSLRPEDTALYYCTIGGSLSRSSQGTLVTVSSA | 170000 | 210 | 120000 | 0.04 | 210 | 170000 | 9 | 12 | 190000 | 0.034 | 0.0015 | 0.0015 |  |
| T032200003 (VHH, also called ALB23002-35GS-ALB23002; bivalent ALB23002 construct) EVQLVESGGGVVQPGGSLRLSCAASGFTFRSFGMSWVRQAPGKGPEWVSSISGSGSDTLYADSVKGRFTISRDNSKNTLYLQMNSLRPEDTALYYCTIGGSLSRSSQGTLVTVSSGGGGSGGGGSGGGGSGGGGSGGGGSGGGGSGGGGSEVQLVESGGGVVQPGGSLRLSCAASGFTFRSFGMSWVRQAPGKGPEWVSSISGSGSDTLYADSVKGRFTISRDNSKNTLYLQMNSLRPEDTALYYCTIGGSLSRSSQGTLVTVSS |  |  |  |  |  |  |  |  |  |  |  |  | Kd [13]: 1.61 nM; koff [13]: 0.00164 s⁻¹; kon [13]: 1.02e+06 M⁻¹ s⁻¹; Kd [14]: 0.865 nM; koff [14]: 0.000461 s⁻¹; kon [14]: 533000 M⁻¹ s⁻¹; Kd [15]: 1.96 nM; koff [15]: 0.00167 s⁻¹; kon [15]: 854000 M⁻¹ s⁻¹; Kd [16]: 0.512 nM; koff [16]: 0.000388 s⁻¹; kon [16]: 759000 M⁻¹ s⁻¹ |
| T026301365 (VHH, not shown: large carriers; small tags and cut ends, Tetravalent ISVD fusion protein made in P. pastoris; X and Y are undisclosed target ISVDs; also called X-9GS-Y-9GS-ALB23002-35GS-Alb223) EVQLVESGGGVVQPGGSLRLSCAASGFTFRSFGMSWVRQAPGKGPEWVSSISGSGSDTLYADSVKGRFTISRDNSKNTLYLQMNSLRPEDTALYYCTIGGSLSRSSQGTLVTVSSGGGGSGGGGSGGGGSGGGGSGGGGSGGGGSGGGGSEVQLVESGGGVVQPGGSLRLSCAASGFTFRSFGMSWVRQAPGKGPEWVSSISGSGSDTLYADSVKGRFTISRDNSKNTLYLQMNSLRPEDTALYYCTIGGSLSRSSQGTLVTVSSA | 180000 | 140 | 160000 | 0.0059 | 100 | 32000 | 8.8 | 9.9 | 58000 | 0.0043 | 0.0016 | 0.0016 |  |

From patent US20250129145A1 (Ablynx, published 2025)
